Source: patent US20200057058A1 (MIT, published 2020)

Legend:
[1] = biological target: monomeric streptavidin variant mSA2; experiment: calculated from [P]T of the mSA2 binding curve fit and film thickness; design: Calculated Density (density of binding sites within a cross-sectional area of the film): unit not given here
Procedure: To determine the density of binding proteins within a single plane of each thin film, the concentration of accessible binding sites throughout the entire film—taken directly from the binding assay curve fits (Table 4)—was multiplied by the corresponding film thickness. When accounting for differences in film thickness, the density of oligomerized rcSso7d.SA proteins capable of binding mSA2 is found to increase […] with degree of oligomerization (Table 5). This calculated density decreases, though, between the 1×SP25k and 2×SP25k thin films, indicating a lower density of accessible binding sites in the protein domains of the oligomerized rcSso7d.SA conjugate film. The total number of predicted binding sites within each thin film assuming complete accessibility should be proportional to the […] of rcSso7d. SA in the conjugate with PNIPAM. Reasonable estimates for relative values of the predicted number of sites can thus be obtained by normalizing the weight fraction of rcSso7d. SA in each conjugate by the corresponding weight fraction in 1×SP25k. Comparing these predicted relative number of binding sites to the calculated values (FIG. 6C), all oligomeric rcSso7d.SA conjugates are found to contain fewer proteins capable of binding mSA2 than predicted. It is likely that this effect results from a combination of steric blocking of binding sites by bound mSA2 molecules as well as a lack of the free volume required to incorporate mSA2 molecules into the protein nanodomains at high degrees of binding. Despite the lower than expected binding capacity of the conjugate thin films, these biosensors contain approximately […] the quantity of accessible binding sites compared to rcSso7d.SA monolayers on a volumetric basis (Table 4). Recognizing that each plane (and a monolayer) of rcSso7d.SA proteins is roughly 1-2 nm thick,⁸⁰ the studied thin films can be determined to contain approximately 100 more planes of protein than a monolayer.

[2] = biological target: monomeric streptavidin variant mSA2; experiment: fluorescent binding assay, labeled mSA2 in PBS on thin film; quadratic curve fit
Procedure: (§1) The binding function of rcSso7d.SA oligomer-PNIPAM thin films was measured using fluorescently-labeled monomeric streptavidin (mSA2) and fluorescently-labeled streptavidin (SA). Details for the expression, purification, and fluorescent labeling of mSA2 are provided below. Samples were prepared by serial dilution of SA or mSA2 in PBS (pH 7.4), human urine (diluted to 50% v/v in PBS, pH 7.4), or blood serum (obtained as the supernatant by centrifuging whole blood at 1500×g for 10 minutes, then diluted to 50% v/v in PBS, pH 7.4). 0.5 μL drops of solutions containing serially diluted fluorescent mSA2 and fluorescent SA samples in PBS (pH 7.4) were gently applied to the surface of each bioconjugate thin film. Films were incubated in a sealed chamber saturated with water vapor at room temperature to prevent to prevent drying of the applied fluorescent samples. After 1 hour, films were thoroughly rinsed with water for 10 seconds (a time determined to be sufficient to remove unbound molecules from the film, see FIG. 33, dried under filtered airflow, and immediately analyzed for fluorescent signal. Fluorescence microscopy images were acquired at 4× magnification using a Cy5 filter set and exposure time of 5000 ms on an Olympus IX-81 inverted fluorescence microscope with an AxioCam HRC CCD camera. Fluorescent intensity was calculated using ImageJ software⁶⁷ by determining the average fluorescent signal in a rectangular area of the fluorescent image free of defects and occupying no less than half of the full sample application area.
Binding assays were performed by adding serially diluted solutions of fluorescently-labeled mSA2 to thin films of each studied conjugate (FIG. 6A). To maintain consistent transport properties between samples, each oligomer was conjugated to the same previously-synthesized 25 kDa PNIPAM sample. Analyte bound to thin films was quantified using fluorescence microscopy, and binding curves were fit to the collected mean fluorescent intensity (MFI) data using the following equation: […]

[3] = biological target: monomeric streptavidin variant mSA2; experiment: fluorescent binding assay, labeled mSA2; signal three standard deviations above blank
Procedure: as §1
Oligomerization of rcSso7d.SA also brings about a decrease in biosensor limit of detection (LOD). […] While all thin films display improvements up to threefold in LOD over the monolayer, the trend in LOD with respect to degree of oligomerization is non-monotonic. The primary factor that is expected to affect LOD in the studied biosensors is number of binding sites, as more binding sites enable a greater number of analyte molecules to be captured and shifts analyte-receptor equilibrium in favor of binding events.

streptavidin [4] = biological target: T1, streptavidin (UniProt P22629 37-163, limits assumed); experiment: fluorescent binding assay: Alexa Fluor 647-labeled streptavidin applied to the thin film; the sheet names the film 2xSP25k, the legend 2xSP17k
T1 construct: It was used without a stated label in the sandwich assays; also called SA
Procedure: as §1, with “Films were incubated in a sealed chamber saturated with water vapor at room temperature to prevent to prevent drying of the applied fluorescent samples.” left out

streptavidin [5] = biological target: T1, streptavidin; experiment: fluorescent binding assay: Alexa Fluor 647-labeled streptavidin applied to the thin film; the sheet names the film 4xSP25k, the legend 4xSP30k
Procedure: as §1, with “Films were incubated in a sealed chamber saturated with water vapor at room temperature to prevent to prevent drying of the applied fluorescent samples.” left out

streptavidin [6] = biological target: T1, streptavidin; experiment: sandwich assay: SA in 50% urine, biotin-HRP/TMB detection
Procedure: (§2) Each well was submerged in 1 mL of 1% BSA in Milli-Q water, and the 12-well plate was incubated at 37° C. for 30 minutes. The wells were rinsed twice by adding 2 mL of Milli-Q water and gently shaking the well plate at 70 rpm for 5 minutes. 1 mL of streptavidin diluted in PBS, urine, or blood serum (prepared as described in the Fluorescent Assays section) containing 0.1% BSA was then added to each well, and the well plate was shaken at 70 rpm for 4 hours at room temperature. Wells were rinsed twice with 2 mL of Milli-Q water then twice with 2 mL of 0.1% BSA in Milli-Q water by shaking at 70 rpm for 5 minutes. After rinsing, wells were submerged in 1 mL of 200 ng/mL biotin-HRP in Milli-Q water containing 0.1% BSA, and the well plate was shaken at 70 rpm for 1 hour at room temperature. Wells were then rinsed with water and 0.1% BSA as described previously. 1 mL of solution from a Pierce TMB substrate kit (Thermo Fisher Scientific) was added to each well, and the well plate was shaken vigorously at 125 rpm for 15 minutes at room temperature. 1 mL of 2M H2SO4 was added to each well, and the absorbance at 450 nm was read using a Tecan Infinite M200 PRO plate reader.
(§3) The general procedure for this proof-of-concept experiment is diagrammed in FIG. 28. Films were first exposed to SA solutions and rinsed to remove unbound analyte. Taking advantage of the strong interaction between SA and biotin, thin films were then submerged in a solution of biotinylated horseradish peroxidase (biotin-HRP). Bound SA was detected colorimetrically through the HRP-mediated oxidation of 3,3′,5,5′-tetramethylbenzidine (TMB). Attempts to perform this assay using mSA2 as the analyte were unsuccessful, even when run on an rcSso7d.SA monolayer.

streptavidin [7] = biological target: T1, streptavidin; experiment: sandwich assay, SA in 50% blood serum, detection with biotin-HRP and TMB
Procedure: as §2, §3

streptavidin [8] = biological target: T1, streptavidin; experiment: fluorescent binding curve, labeled SA in 50% urine, 4 h; quadratic fit
streptavidin [9] = biological target: T1, streptavidin; experiment: sandwich assay: SA in 50% blood serum, biotin-HRP/TMB detection
Procedure: as §2, §3

[10] = biological target: monomeric streptavidin variant mSA2; experiment: fluorescent binding curve, labeled mSA2 in 50% urine, 4 h; quadratic fit
[11] = biological target: monomeric streptavidin variant mSA2; experiment: fluorescent binding curves, labeled mSA2 in 50% urine or 50% blood serum, 4 h
streptavidin [12] = biological target: T1, streptavidin; experiment: fluorescent binding curve, labeled SA in 50% blood serum, 4 h; quadratic fit
[13] = biological target: monomeric streptavidin variant mSA2; experiment: fluorescent binding curve, labeled mSA2 in 50% blood serum, 4 h; quadratic fit
streptavidin [14] = biological target: T1, streptavidin; experiment: fluorescent binding assay, labeled SA in 50% urine on thin film, 4 h exposure
[15] = biological target: monomeric streptavidin variant mSA2; experiment: fluorescent binding assay, labeled mSA2 in 50% urine on thin film, 4 h exposure
Procedure: as §1, with “After 1 hour, films were thoroughly rinsed with water for 10 seconds (a time determined to be sufficient to remove unbound molecules from the film, see FIG. 33, dried under filtered airflow, and immediately analyzed for fluorescent signal.” left out
(§4) To evaluate how the apparent size-based diffusion properties translated to biosensing capabilities, binding curves were measured using SA and mSA2 solutions in buffer. Binding curves were fit with a quadratic model that is a function of three parameters: the average MFI per binding event a, the total concentration of binding sites [P]T, and the apparent dissociation constant K_{d,app} describing the binding equilibrium between analyte and binding sites within the thin film.

streptavidin [16] = biological target: T1, streptavidin; experiment: fluorescent binding assay, labeled SA in 50% blood serum on thin film, 4 h exposure
streptavidin [17] = biological target: T1, streptavidin; experiment: apparent Kd (Kd,app); fluorescent binding curve, labeled SA in 50% urine, 4 h; quadratic fit
[18] = biological target: monomeric streptavidin variant mSA2; experiment: fluorescent binding assay, labeled mSA2 in 50% blood serum on thin film, 4 h exposure
Procedure: as §1, with “After 1 hour, films were thoroughly rinsed with water for 10 seconds (a time determined to be sufficient to remove unbound molecules from the film, see FIG. 33, dried under filtered airflow, and immediately analyzed for fluorescent signal.” left out
as §4

[19] = biological target: monomeric streptavidin variant mSA2; experiment: apparent Kd (Kd,app); fluorescent binding curve, labeled mSA2 in 50% urine, 4 h; quadratic fit
streptavidin [20] = biological target: T1, streptavidin; experiment: apparent Kd (Kd,app); fluorescent binding curve, labeled SA in 50% blood serum, 4 h; quadratic fit
[21] = biological target: monomeric streptavidin variant mSA2; experiment: apparent Kd (Kd,app); fluorescent binding curve, labeled mSA2 in 50% blood serum, 4 h; quadratic fit

T1 sequence (P22629 37-163 limits assumed): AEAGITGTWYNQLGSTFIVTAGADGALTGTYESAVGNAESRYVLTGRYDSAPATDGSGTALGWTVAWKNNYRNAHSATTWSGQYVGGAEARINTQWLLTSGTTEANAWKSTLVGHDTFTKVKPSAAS

B1: 2xSP25k thin film (2x rcSso7d.SA-PNIPAM conjugate, 25 kDa PNIPAM) (designed binder)
chain: MGSSHHHHHHSSGLVPRGSHMCATVKFTYQGEEKQVDISKIKIVARDGQYIDFKYDEGGGAYGYGWVSEKDAPKELLQMLEKQGGGGSGGGGSMATVKFTYQGEEKQVDISKIKIVARDGQYIDFKYDEGGGAYGYGWVSEKDAPKELLQMLEKQGG
modifications: maleimide end-functionalized PNIPAM (25 kDa) on the N-terminal Cys; film lightly crosslinked with glutaraldehyde
notes: Two rcSso7d.SA repeats joined by a (G4S)2 linker in one chain
B1 was tested, and the “Calculated Density (density of binding sites within a cross-sectional area of the film)” value [1] was 43, the “Calculated Ratio (film thickness x [P]T relative to the 1xSP25k thin film)” value [1] was 0.9 and the “[P]T (total concentration of accessible binding sites)” value [2] was 3.3 µM. The “limit of detection (LOD)” value [3] was 200 nM and the binding result (streptavidin [4]) was “binds”.

B2: 4xSP25k thin film (4x rcSso7d.SA-PNIPAM conjugate, 25 kDa PNIPAM) (designed binder)
chain: MGSSHHHHHHSSGLVPRGSHMCATVKFTYQGEEKQVDISKIKIVARDGQYIDFKYDEGGGAYGYGWVSEKDAPKELLQMLEKQGGGGSGGGGSMATVKFTYQGEEKQVDISKIKIVARDGQYIDFKYDEGGGAYGYGWVSEKDAPKELLQMLEKQGGGGSGGGGSMATVKFTYQGEEKQVDISKIKIVARDGQYIDFKYDEGGGAYGYGWVSEKDAPKELLQMLEKQGGGGSGGGGSMATVKFTYQGEEKQVDISKIKIVARDGQYIDFKYDESGGAYGYGWVSEKDAPKELLQMLEKQ
modifications: maleimide end-functionalized PNIPAM (25 kDa) on the N-terminal Cys; film lightly crosslinked with glutaraldehyde
notes: Four rcSso7d.SA repeats joined by (G4S)2 linkers in one chain
In the case of B2, the “Calculated Density (density of binding sites within a cross-sectional area of the film)” value [1] is reported as 62, the “Calculated Ratio (film thickness x [P]T relative to the 1xSP25k thin film)” value [1] is reported as 1.31 and the “[P]T (total concentration of accessible binding sites)” value [2] is reported as 3.7 µM. For the same binder, the “limit of detection (LOD)” value [3] was 140 nM and the binding result (streptavidin [5]) was “binds”.

B3: 3xSP30.3k thin film (3x rcSso7d.SA-PNIPAM conjugate, PNIPAM Mn 30.3 kDa) (designed binder)
chain: MGSSHHHHHHSSGLVPRGSHMCATVKFTYQGEEKQVDISKIKIVARDGQYIDFKYDEGGGAYGYGWVSEKDAPKELLQMLEKQGGGGSGGGGSMATVKFTYQGEEKQVDISKIKIVARDGQYIDFKYDEGGGAYGYGWVSEKDAPKELLQMLEKQGGGGSGGGGSMATVKFTYQGEEKQVDISKIKIVARDGQYIDFKYDEGGGAYGYGWVSEKDAPKELLQMLEKQGG
modifications: maleimide end-functionalized PNIPAM (Mn 30.3 kDa) on the N-terminal Cys; film lightly crosslinked with glutaraldehyde
In the case of B3, the LOD (streptavidin [6]) is reported as 28 nM, the “LOD relative to rcSso7d.SA monolayer” value (streptavidin [7]) is reported as 2 fold and the “[P]T (total concentration of binding sites)” value (streptavidin [8]) is reported as 0.27 nM. For the same binder, the LOD (streptavidin [9]) was 87 nM, the “[P]T (total concentration of binding sites)” value [10] was 16 nM and the “LOD relative to rcSso7d.SA monolayer” value [11] was 2 orders of magnitude lower. For the same binder, the “[P]T (total concentration of binding sites)” value (streptavidin [12]) was 0.23 nM, the “[P]T (total concentration of binding sites)” value [13] was 5.7 nM and the “Limit of Detection” value (streptavidin [14]) was 1100 nM. For the same binder, the “Limit of Detection” value [15] was 12 nM, the “Limit of Detection” value (streptavidin [16]) was 1800 nM and the Kd (streptavidin [17]) was 30 µM. The “Limit of Detection” value [18] was 25 nM, the Kd [19] was 29 µM and the Kd (streptavidin [20]) was 40 µM. For the same binder, the Kd [21] was 20 µM.
